Measured values as given in US20200297860 (published 2020).

T1: human mesothelin (human, UniProt Q13421)
T1 chain: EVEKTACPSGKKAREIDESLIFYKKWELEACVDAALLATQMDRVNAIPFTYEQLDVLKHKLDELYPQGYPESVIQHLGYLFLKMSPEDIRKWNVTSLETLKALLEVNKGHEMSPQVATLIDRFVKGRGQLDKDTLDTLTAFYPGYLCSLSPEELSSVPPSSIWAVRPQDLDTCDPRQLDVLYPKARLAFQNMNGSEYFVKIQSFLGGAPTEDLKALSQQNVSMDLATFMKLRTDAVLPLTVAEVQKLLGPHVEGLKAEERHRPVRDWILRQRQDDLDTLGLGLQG

B1: 346C6-zu (antibody, V domains shown)
VH: EVQLVESGGGLVQPGGSLRLSCAASGFSLSSYAMIWVRQAPGKGLEWIGTISTGGITYYASWAKGRFTISRDNSKNTLYLQMNSLRAEDTAVYYCARGGYAASSAYYLPYYFDLWGQGTLVTVSS
VL: DIQMTQSPSSLSASVGDRVTITCQSSQSVYNNNNLAWYQQKPGKVPKLLIYLASTLASGVPSRFSGSGSGTDFTLTISSLQCEDAATYYCLGGCDDDADTFAFGGGTKVEIK
B2: 111B10-zu (antibody, V domains shown)
VH: EVQLVESGGGLVQPGGSLRLSCAASGFSLNNYAMSWVRQAPGKGLEWIGSISTGGLAFYANWAKGRFTISRDNSKNTLYLQMNSLRAEDTAVYYCARNGGGSYIFYYFDLWGQGTLVTVSS
VL: DIQMTQSPSSLSASVGDRVTITCQASQSISSYLSWYQQKPGKAPKLLIYSASTLASGVPSRFSGSGSGTDFTLTISSLQCEDAATYYCQSYYDIGTSTFGGGTKVEIK
B3: MORAb003-DBCO-PEG2 eribulin (antibody, V domains shown)
VH: EVQLVESGGGVVQPGRSLRLSCSASGFTFSGYGLSWVRQAPGKGLEWVAMISSGGSYTYYADSVKGRFAISRDNAKNTLFLQMDSLRPEDTGVYFCARHGDDPAWFAYWGQGTPVTVSS
VL: DIQLTQSPSSLSASVGDRVTITCSVSSSISSNNLHWYQQKPGKAPKPWIYGTSNLASGVPSRFSGSGSGTDYTFTISSLQPEDIATYYCQQWSSYPYMYTFGQGTKVEIK
B4: MORAb003-ER1235638 (antibody, V domains shown)
VH: B3 VH
VL: B3 VL
B5: MORAb003-DBCO-ER1138856 (antibody, V domains shown)
VH: B3 VH
VL: B3 VL
B6: MORAb003-ER1236941 (antibody, V domains shown)
VH: B3 VH
VL: B3 VL
B7: MORAb003-DBCO-PEG4 eribulin (antibody, V domains shown)
VH: B3 VH
VL: B3 VL
B8: MORAb003-DBCO-PEG4 VCP eribulin (antibody, V domains shown)
VH: B3 VH
VL: B3 VL

Target: T1, human mesothelin
Experiment: SPR

| Kd [nM] | Binder |
| --- | --- |
| 8.9 | B1 |
| 6.5 | B2 |

Target: human folate receptor alpha (human)
Sequence (P15328 whole entry): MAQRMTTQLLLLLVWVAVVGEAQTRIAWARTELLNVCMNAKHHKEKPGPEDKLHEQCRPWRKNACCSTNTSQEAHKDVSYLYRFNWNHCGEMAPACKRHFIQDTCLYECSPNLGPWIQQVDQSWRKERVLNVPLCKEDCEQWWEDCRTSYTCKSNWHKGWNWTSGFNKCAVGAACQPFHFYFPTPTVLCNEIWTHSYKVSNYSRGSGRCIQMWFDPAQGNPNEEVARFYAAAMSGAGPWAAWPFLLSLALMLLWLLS
Experiment: ELISA

| EC50 [µg/mL] | Binder |
| --- | --- |
| 0.0191 | B3 |
| 0.0153 | B4 |
| 0.015 | B5 |
| 0.013 | B6 |
| 0.0133 | B7 |
| 0.016 | B8 |
